The assay has as its target T1, C3b (purified; species not stated in Examples 12, 13, 19, 20) (Homo sapiens (Human), UniProt P01024 23-667; P01024 749-1663, The two chains are disulfide-linked. The internal thioester of the alpha' chain (Cys-Gln) is broken in C3b. Natural glycosylation is present. The protein carries an Alexa488 label in the …).
T1 construct: also called complement C3b; C3b-A488
The assay is described as follows: SPR (Biacore 2000), C3b amine-coupled to a CM5 chip, CRIg-Fc injected.

Experimental findings from US20070190054A1 (published 2007) are described below.

B1: murine CRIg-Fc fusion protein (Fc fusion)
chain: HPTLKTPESVTGTWKGDVKIQCIYDPLRGYRQVLVKWLVRHGSDSVTIFLRDSTGDHIQQAKYRGRLKVSHKVPGDVSLQINTLQMDDRNHYTCEVTWQTPDGNQVIRDKIIELRVRKYNPPRINTEAPTTLHSSLEATTIMSSTSDLTTNGTGKLEETIAGSGRNLPIFAIIFIISLCCI
notes: Produced in CHO cells; also called muCRIg-Fc; MuCRIg Fc; not shown: hinge, CH2 and CH3 domains of murine IgG1
Regarding B1, binding was characterised by a dissociation constant (Kd) of 250 nM.

As usually defined, the Kd is the free concentration of one partner at which half of the binding sites on the other are occupied at equilibrium, for simple one-to-one binding.
